These binders were tested against T1, HLA-A0201 on T2 cells (human) (assay: T2 cell peptide binding assay, fluorescence index = (MFI sample - MFI background)/MFI background, peptide 100 uM).
T1 construct: MHC class I on TAP-deficient T2 cells; also called HLA-A2; HLA-A0201 molecule
Experimental: (§1) Cells were collected by centrifugation of the cell culture at 200 g for 5 minutes. The collected cells were washed twice with PBS, and then directly incubated with FITC-conjugated anti-HLA-A0201 monoclonal antibody at 4° C. for 30 minutes. The mean fluorescence intensity (MFI) was then detected and analyzed by flow cytometer (BD FACSJazz™) and its software. The fluorescence index (FI) was calculated by using the following formula:
In the case of FMVDGSWSI (Synthetic peptide, purity >90%) [wild-type peptide FMVDGSWSI], the FI is reported as 2.38.
With FLVDGFWSI (Synthetic peptide) [variant peptide FLVDGFWSI] the FI was 2.07.
For FLVDGFWSV (Synthetic peptide) [variant peptide FLVDGFWSV], the FI was 1.81.
With FMVDGFWSL (Synthetic peptide) [variant peptide FMVDGFWSL] the FI was 2.28.
FLVDGFWSL (Synthetic peptide) [variant peptide FLVDGFWSL] was tested, and the FI was 1.91.
Work on FMVDGFWSV (Synthetic peptide) [variant peptide FMVDGFWSV] yielded an FI of 2.16.

The binders below were run against T1, HLA-A0201 on T2 cells (assay: T2 cell peptide binding assay, flow cytometry with FITC anti-HLA-A0201, peptide 100 uM).
Experimental: as §1
With FMVDGSWSI (Synthetic peptide, purity >90%) [wild-type peptide FMVDGSWSI] the Average fluorescence intensity was 772.
For FLVDGFWSI (Synthetic peptide) [variant peptide FLVDGFWSI], the Average fluorescence intensity was 701.
In the case of FLVDGFWSV (Synthetic peptide) [variant peptide FLVDGFWSV], the Average fluorescence intensity is reported as 642.
FMVDGFWSL (Synthetic peptide) [variant peptide FMVDGFWSL] showed an Average fluorescence intensity of 748.
Work on FLVDGFWSL (Synthetic peptide) [variant peptide FLVDGFWSL] yielded an Average fluorescence intensity of 664.
FMVDGFWSV (Synthetic peptide) [variant peptide FMVDGFWSV] showed an Average fluorescence intensity of 721.
